Test results as given in PMC3814787, “Potential Regulatory Interactions of Escherichia coli RraA Protein with DEAD-box Helicases* ^([image sbox.jpg])” (The Journal of Biological Chemistry, 2013).

T1: DEAD-box helicase RhlE (Escherichia coli, UniProt P25888 1-454)
T1 construct: RhlE, DEAD-box RNA helicase, Escherichia coli; source: E. coli BL21(DE3), purified (ammonium sulfate precipitation, heparin column)
T1 sequence (looked up): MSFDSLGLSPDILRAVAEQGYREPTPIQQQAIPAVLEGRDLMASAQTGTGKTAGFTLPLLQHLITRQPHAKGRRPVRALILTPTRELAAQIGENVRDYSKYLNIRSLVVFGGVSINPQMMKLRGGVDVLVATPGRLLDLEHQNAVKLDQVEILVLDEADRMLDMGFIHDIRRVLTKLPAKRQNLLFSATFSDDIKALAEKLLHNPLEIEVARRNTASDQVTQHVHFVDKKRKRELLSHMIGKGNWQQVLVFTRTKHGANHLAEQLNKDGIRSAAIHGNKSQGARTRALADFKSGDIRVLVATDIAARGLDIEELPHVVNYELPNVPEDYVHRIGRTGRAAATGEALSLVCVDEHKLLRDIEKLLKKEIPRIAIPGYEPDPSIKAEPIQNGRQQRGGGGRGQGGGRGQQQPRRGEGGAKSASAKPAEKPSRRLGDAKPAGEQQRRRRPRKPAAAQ

T2: DEAD-box helicase DbpA (Escherichia coli, UniProt P21693 1-457)
T2 construct: DbpA, DEAD-box RNA helicase, Escherichia coli; monomer of 49 kDa as printed; source: E. coli BL21(DE3), purified (ammonium sulfate precipitation, heparin column)
T2 sequence (looked up): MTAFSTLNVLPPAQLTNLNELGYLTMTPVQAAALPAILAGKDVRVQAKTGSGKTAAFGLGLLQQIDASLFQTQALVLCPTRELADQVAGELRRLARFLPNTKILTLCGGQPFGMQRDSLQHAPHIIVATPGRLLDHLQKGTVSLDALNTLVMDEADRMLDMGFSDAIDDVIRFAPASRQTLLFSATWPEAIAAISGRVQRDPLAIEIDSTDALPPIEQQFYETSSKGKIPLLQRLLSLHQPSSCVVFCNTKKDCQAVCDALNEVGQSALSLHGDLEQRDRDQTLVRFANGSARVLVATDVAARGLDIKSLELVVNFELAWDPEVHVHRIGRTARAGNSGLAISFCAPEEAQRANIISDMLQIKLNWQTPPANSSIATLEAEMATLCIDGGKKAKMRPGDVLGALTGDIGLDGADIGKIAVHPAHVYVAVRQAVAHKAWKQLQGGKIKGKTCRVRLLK

B1: Regulator of ribonuclease activity A (RraA) (natural protein, Escherichia coli)
chain: MKYDTSELCDIYQEDVNVVEPLFSNFGGRASFGGQIITVKCFEDNGLLYDLLEQNGRGRVLVVDGGGSVRRALVDAELARLAVQNEWEGLVIYGAVRQVDDLEELDIGIQAMAAIPVGAAGEGIGESDVRVNFGGVTFFSGDHLYADNTGIILSEDPLDIE
notes: RraA, regulator of ribonuclease activity A, Escherichia coli; ring-shaped homotrimer (52 kDa); residues 2-159 modelled in the crystal; Trimer at 150 mM NaCl; about 100 kDa (hexamer) at 300 mM NaCl
B2: CsdAΔ (truncated CsdA, residues 1 to 443) (domain or fragment, Escherichia coli, UniProt P0A9P6 1-443, looked up)
chain: MAEFETTFADLGLKAPILEALNDLGYEKPSPIQAECIPHLLNGRDVLGMAQTGSGKTAAFSLPLLQNLDPELKAPQILVLAPTRELAVQVAEAMTDFSKHMRGVNVVALYGGQRYDVQLRALRQGPQIVVGTPGRLLDHLKRGTLDLSKLSGLVLDEADEMLRMGFIEDVETIMAQIPEGHQTALFSATMPEAIRRITRRFMKEPQEVRIQSSVTTRPDISQSYWTVWGMRKNEALVRFLEAEDFDAAIIFVRTKNATLEVAEALERNGYNSAALNGDMNQALREQTLERLKDGRLDILIATDVAARGLDVERISLVVNYDIPMDSESYVHRIGRTGRAGRAGRALLFVENRERRLLRNIERTMKLTIPEVELPNAELLGKRRLEKFAAKVQQQLESSDLDQYRALLSKIQPTAEGEELDLETLAAALLKMAQGERTLIVPPD
notes: CsdA (DeaD), DEAD-box RNA helicase, Escherichia coli, residues 1 to 443, without the C-terminal extension; Vector pROEX-HT, gift of M. Dreyfus and T. Bizebard; also called CsdA (DeaD); source: E. coli BL21(DE3), purified (HisTrap FF)
B3: DEAD-box helicase RhlB (enzyme, Escherichia coli, UniProt P0A8J8 1-421, looked up)
chain: MSKTHLTEQKFSDFALHPKVVEALEKKGFHNCTPIQALALPLTLAGRDVAGQAQTGTGKTMAFLTSTFHYLLSHPAIADRKVNQPRALIMAPTRELAVQIHADAEPLAEATGLKLGLAYGGDGYDKQLKVLESGVDILIGTTGRLIDYAKQNHINLGAIQVVVLDEADRMYDLGFIKDIRWLFRRMPPANQRLNMLFSATLSYRVRELAFEQMNNAEYIEVEPEQKTGHRIKEELFYPSNEEKMRLLQTLIEEEWPDRAIIFANTKHRCEEIWGHLAADGHRVGLLTGDVAQKKRLRILDEFTRGDLDILVATDVAARGLHIPAVTHVFNYDLPDDCEDYVHRIGRTGRAGASGHSISLACEEYALNLPAIETYIGHSIPVSKYNPDALMTDLPKPLRLTRPRTGNGPRRTGAPRNRRRSG
notes: RhlB, DEAD-box RNA helicase, Escherichia coli; monomer of 47 kDa as printed; The printed mass of 47 kDa fits the whole protein; 'full-length RhlB' is said only of the crystallisation trials
B4: DEAD-box helicase SrmB (enzyme, Escherichia coli, UniProt P21507 1-444, looked up)
chain: MTVTTFSELELDESLLEALQDKGFTRPTAIQAAAIPPALDGRDVLGSAPTGTGKTAAYLLPALQHLLDFPRKKSGPPRILILTPTRELAMQVSDHARELAKHTHLDIATITGGVAYMNHAEVFSENQDIVVATTGRLLQYIKEENFDCRAVETLILDEADRMLDMGFAQDIEHIAGETRWRKQTLLFSATLEGDAIQDFAERLLEDPVEVSANPSTRERKKIHQWYYRADDLEHKTALLVHLLKQPEATRSIVFVRKRERVHELANWLREAGINNCYLEGEMVQGKRNEAIKRLTEGRVNVLVATDVAARGIDIPDVSHVFNFDMPRSGDTYLHRIGRTARAGRKGTAISLVEAHDHLLLGKVGRYIEEPIKARVIDELRPKTRAPSEKQTGKPSKKVLAKRAEKKKAKEKEKPRVKKRHRDTKNIGKRRKPSGTGVPPQTTEE
notes: SrmB, DEAD-box RNA helicase, Escherichia coli; monomer of 50 kDa as printed; only residues 219-388 (C-terminal RecA-like domain) are resolved in the crystal; source: E. coli BL21(DE3), purified (ammonium sulfate precipitation, heparin column)

Key:
[1] = molecular target: B2; experiment: native gel or EMSA; 5% native polyacrylamide gel, Tris glycine running buffer with 1 mM DTT, 4 °C; helicase 10 μM and RraA 30 μM (2.5 and 7.5 μM for the mutants of Figure 3); bands of the complex cut out and analysed by SDS-PAGE; conditions: both partners purified
DEAD-box helicase RhlE = molecular target: T1, DEAD-box helicase RhlE; experiment: as above; conditions: both partners purified
DEAD-box helicase DbpA = molecular target: T2, DEAD-box helicase DbpA; experiment: AUC; sedimentation velocity, absorbance at 280 nm, 20 °C; 150 mM NaCl, 50 mM HEPES pH 7.5, 10% glycerol; mixtures at 1:1 helicase:RraA trimer, about 10 μM; conditions: both partners purified
[2] = molecular target: the molecule itself; experiment: as above
DEAD-box helicase SrmB = molecular target: B4; experiment: as above; conditions: both partners purified
[3] = molecular target: the molecule itself; experiment: crystal structure; RraA and RhlB(398-421) mixed at 1:20; 74.8 μM RraA, 1.48 mM peptide, 423 mM NaCl, 99 mM (NH4)2SO4; hanging drop, 16 °C; 100 mM sodium citrate pH 5.4, 32% methylpentanediol, 200 mM ammonium acetate; 2.8 Å
[4] = molecular target: the molecule itself; experiment: AUC; sedimentation velocity, 20 °C; 300 mM NaCl, 50 mM HEPES pH 7.5, 10% glycerol, 2 mM tris(2-carboxyethyl)phosphine; experiments with CsdAΔ; about 10 μM
[5] = molecular target: B1; experiment: AUC; sedimentation velocity, absorbance at 280 nm, 20 °C; 150 mM NaCl, 50 mM HEPES pH 7.5, 10% glycerol; mixtures at 1:1 helicase:RraA trimer, about 10 μM; conditions: both partners purified
[6] = molecular target: B1; experiment: SAXS; SrmB and RraA mixed at a 1:3 molar ratio; 150 mM NaCl, 20 mM HEPES pH 7.0, 5% glycerol, 2 mM DTT; 15 °C; 5 to 55 μM; ab initio envelope; conditions: both partners purified

Binder: B1
- binding result [1]: binds
- binding result (DEAD-box helicase RhlE): binds
- binding result (DEAD-box helicase DbpA): binds
- stoichiometry N [2]: 3
- Kd (DEAD-box helicase SrmB): < 10 µM
- stoichiometry N [3]: 6

Binder: B2
- stoichiometry N [4]: 2

Binder: B3
- stoichiometry N [5]: 1 helicase monomer per RraA trimer

Binder: B4
- stoichiometry N [5]: 1 helicase monomer per RraA trimer
- stoichiometry N [6]: 1 SrmB per RraA trimer
